The values below come from article PMC9296572, “An Unusual Oxidative Rearrangement Catalyzed by a Divergent Member of the 2‐Oxoglutarate‐Dependent Dioxygenase Superfamily during Biosynthesis of Dehydrofosmidomycin” (Angewandte Chemie (International Ed. in English), 2022).

The series relates to C[N+](C)(C)CCP(=O)([O-])O. As to the kind of experiment: O2 consumption, Clark-type electrode, initial rates in first minute. To be noted: apparent; co-substrates 2-oxoglutarate and O2, Fe(II); two-turnover enzyme, value assumed to pertain to the desaturation to TMAVP. It counts as biochemical, Streptomyces lavendulae.

The Km is the concentration of substrate that gives half-maximal velocity. As a reminder, the kcat is the number of substrate molecules converted per active site and unit of time at saturation.

With DfmD (Streptomyces lavendulae), the Km turned out to be 160 µM and the kcat turned out to be 0.04 s⁻¹.
